In patent US20240239878A1 (SHANGHAI QILU PHARMACEUTICAL RESEARCH AND DEVELOPMENT CENTRE, published 2024):
Changes are numbered by the printed parent chain. Read-outs that look alike come from different tables or passages of the source. Blank lines part the entries; values can stand above or below the binder they belong to.

Legend:
[1] = target: T1, Cynomolgus monkey DLL3 on HEK293 cells (HEK293-cyno DLL3) (Cynomolgus monkey, UniProt Q9NYJ7 27-618 (human entry)); assay: flow cytometry, HEK293-cyno DLL3 cells
T1 chain: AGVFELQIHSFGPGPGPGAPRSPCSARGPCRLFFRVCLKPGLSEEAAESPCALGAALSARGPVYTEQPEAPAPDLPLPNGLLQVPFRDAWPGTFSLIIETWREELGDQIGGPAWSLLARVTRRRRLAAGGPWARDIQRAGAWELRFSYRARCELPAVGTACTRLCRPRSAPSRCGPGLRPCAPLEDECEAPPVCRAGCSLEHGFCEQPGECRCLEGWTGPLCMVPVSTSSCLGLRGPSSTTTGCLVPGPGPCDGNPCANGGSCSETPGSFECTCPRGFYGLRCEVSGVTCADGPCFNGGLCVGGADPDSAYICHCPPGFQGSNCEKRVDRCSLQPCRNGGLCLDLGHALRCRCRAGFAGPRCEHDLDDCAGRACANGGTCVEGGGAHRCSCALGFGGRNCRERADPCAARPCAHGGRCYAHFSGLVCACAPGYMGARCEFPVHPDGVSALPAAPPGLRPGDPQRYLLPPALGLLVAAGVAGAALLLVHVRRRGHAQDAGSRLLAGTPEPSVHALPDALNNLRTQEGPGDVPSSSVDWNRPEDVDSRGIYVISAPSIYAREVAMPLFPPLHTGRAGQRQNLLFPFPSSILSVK
Procedure: (§1) SHP-77 and HEK293-cyno DLL3 cells were cultured. The culture medium for SHP-77 cells were RPMI1640+10% FBS, and the culture medium for HEK293 cyno DLL3 cells were DMEM+10% FBS+200 μg/ml Hygromycin. The cells were cultured in a T75 cell culture flask at a 37° C. 5% CO₂ incubator. When using cells, they are washed with sterile DPBS, digested with 0.25% trypsin EDTA for about 5 minutes, and then stopped with a complete medium.
(§2) The digested cells were centrifuged at 1000 rpm for 5 min at room temperature. The supernatant was discarded and the cells were resuspended in 100 μL of 1% BSA (in PBS). The cells were counted and adjusted to a cell density of 1E6/m. The dilute cells were seeded in a 96-well round-bottom culture plate (corning 3799), and centrifuged at 1500 rpm for 5 min at 4° C. The supernatant was discarded and the cells were stored at 4° C. until use. Antibody samples to be tested were diluted with 1% BSA (in PBS) at a starting concentration of 100 nM, downwards by a 10-fold gradient for 7 concentrations. The cells were resuspended with the diluted antibody at 100 μL/well and incubated for 1 hour at 4° C. The cells were centrifuged at 1500 rpm for 5 minutes at 4° C. and the supernatant was discarded. The cells were resuspended and washed with 160 μL of 1% BSA (in PBS), centrifuged at 1500 rpm for 5 minutes at 4° C. The supernatant was discarded. The secondary antibody (goat anti human IgG Fc PE) was diluted 1:200 with 1% BSA (in PBS) according to the manufacturer's instructions and the cells were resuspended with the diluted secondary antibody, 100 μL/well, and incubated for 0.5 h at 4° C. The cells were centrifuged at 1500 rpm for 5 minutes at 4° C. and the supernatant was discarded. The cells were resuspended and washed with 160 μL of 1% BSA (in PBS), centrifuged at 1500 rpm for 5 minutes at 4° C. The supernatant was discarded. The cells were resuspended in 100 μL of 1% BSA (in PBS), and filtered across a 300 mesh gauze. The mean fluorescence intensity of the PE channels was measured by flow cytometry.
(§3) The analyzed mean fluorescence intensity was imported into Graphpad to analyze the median-binding concentration (hereinafter referred to as EC50) of antibody and cell and the top mean fluorescence intensity (Top MFI).

[2] = target: T2, human DLL3 on SHP-77 cells (human, UniProt Q9NYJ7 27-618); assay: flow cytometry, SHP-77 cells
T2 construct: also called DLL3-expressing cells (SHP-77)
T2 sequence: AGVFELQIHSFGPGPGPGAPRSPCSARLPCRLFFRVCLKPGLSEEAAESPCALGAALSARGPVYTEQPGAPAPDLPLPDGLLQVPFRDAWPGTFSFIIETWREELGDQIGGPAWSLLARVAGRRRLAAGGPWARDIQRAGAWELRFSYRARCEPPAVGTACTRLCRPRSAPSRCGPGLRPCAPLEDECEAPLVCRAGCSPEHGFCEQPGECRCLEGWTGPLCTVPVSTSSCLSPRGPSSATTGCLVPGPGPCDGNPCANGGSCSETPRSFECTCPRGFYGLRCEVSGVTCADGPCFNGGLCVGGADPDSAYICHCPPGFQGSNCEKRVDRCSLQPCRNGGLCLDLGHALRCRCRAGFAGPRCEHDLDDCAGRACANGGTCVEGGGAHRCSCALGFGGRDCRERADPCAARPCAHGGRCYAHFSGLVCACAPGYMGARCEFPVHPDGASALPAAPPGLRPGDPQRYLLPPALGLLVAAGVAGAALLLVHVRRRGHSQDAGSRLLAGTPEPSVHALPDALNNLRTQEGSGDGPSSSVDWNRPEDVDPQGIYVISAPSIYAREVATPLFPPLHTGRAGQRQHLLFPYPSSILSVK
Procedure: as §1, §2, §3

[3] = target: T2, human DLL3 on SHP-77 cells; assay: flow cytometry, SHP-77 cells; remark: listed apart in the source
Procedure: SHP-77 cells were cultured. The culture medium for SHP-77 cells was RPMI1640+10% FBS. The cells were cultured in a T75 cell culture flask at a 37° C. 5% CO₂ incubator. When using cells, they are washed with sterile DPBS, digested with 0.25% trypsin EDTA for about 5 minutes, and then stopped with a complete medium.
as §2, with “plated” for “seeded”, “µL/well,” for “μL/well,”
as §3

[4] = target: T2, human DLL3 on SHP-77 cells; assay: flow cytometry, SHP-77 cells; remark: listed apart in the source
Procedure: as §1, with “DLL3 cells was DMEM+10% FBS+200” for “DLL3 cells were DMEM+10% FBS+200”
as §2, with “antibody.” for “antibody,”, “µL/well,” for “μL/well,”
as §3

EC50 [3]: 2.13 nM | Top MFI [3]: 1430 MFI
B3: H1-39E2D11 mouse hybridoma-derived humanized anti-DLL3 antibody (antibody, V domains shown)
VH: QVQLVQSGAEVKKPGASVKVSCKASGYTFISYWITWVRQAPGQGLEWMGDIYPGSGSTTNYNEKFKSRVTMTRDTSTSTVYMELSSLRSEDTAVYYCARETTVGGAYAMDYWGQGTLVTVSS
VL: EIVLTQSPATLSLSPGERATLSCRASQSINNNLHWYQQKPGQAPRLLIYYVSQSISGIPARFSGSGSGTDFTLTISSLEPEDFAVYYCQQTNSWPLTFGGGTKLEIK

EC50 [3]: 5.16 nM | Top MFI [3]: 1590 MFI
B4: H1-45E4D7 mouse hybridoma-derived humanized anti-DLL3 antibody (antibody, V domains shown)
VH: QVQLVQSGAEVKKPGASVKVSCKASGYTFTSHWITWVRQAPGQGLEWMGDIYPISGSTNNNEKFRNRVTMTRDTSTSTVYMELSSLRSEDTAVYYCAKIITVGGAYVMDYWGQGTLVTVSS
VL: B3 VL with L4M, L13V, I29V, N30R, D70E, E79Q, P80S, T91S

EC50 [4]: 69.3 nM | Top MFI [4]: 455 MFI
B6: 47E12D12-2 mouse hybridoma-derived anti-DLL3 chimeric antibody (antibody, V domains shown)
VH: EVQLVESGGGLVKPGGSLKLSCAASGFTFSDYGMHWVRQAPEKGLEWVAYISSGSSTIYYADTVKGRFTISRDNAKNTLFLQMTSLRSEDTAMYYCARNSRGFAYWGQGTLVTVSA
VL: DIVLIQSPTIMSASPGEKVTMTCSASSSVSSMHWYQQKSGTSPKRWIYDTSKLASGVPARFSGSGSGTSYSLTISTMEAEDAATYYCQQWNSYHLTFGAGTKLELK

EC50 [1]: 1.01 nM | Top MFI [1]: 148 MFI | EC50 [2]: 0.389 nM | Top MFI [2]: 622 MFI
B7: hDLL3-276 camelid-derived humanized anti-DLL3 antibody (antibody, V domains shown)
VH: QVQLVESGGGVVQPGGSLRLSCAASGSTASTTYMGWFRQAPGKGREGVAIIYTARDNPWYADSVKGRFTISRDNSKNTLYLQMNSLRAEDTAVYYCAATLANPTRTAWGQGTLVTVSS

Further lines, the binder ahead of its results:

B1: hDLL3-12-1 camelid-derived humanized anti-DLL3 antibody (antibody, V domains shown)
VH: QVQLVESGGGVVQPGRSLRLSCAASGFAFSSYDMHWVRQAPGKGLEWVSSISRDGRGPRYADSVKGRFTISRDNSKNTLYLQMNSLRAEDTAVYYCSKGYPIMGGTTQGTLVTVSS
EC50 [1]: 2.36 nM | Top MFI [1]: 178 MFI | EC50 [2]: 0.052 nM | Top MFI [2]: 690 MFI

B2: hDLL3-12-2 camelid-derived humanized anti-DLL3 antibody (antibody, V domains shown)
VH: B1 VH with G44D, L45F
EC50 [1]: 1.35 nM | Top MFI [1]: 190 MFI | EC50 [2]: 0.081 nM | Top MFI [2]: 804 MFI

B5: 47E12D12-1 mouse hybridoma-derived anti-DLL3 chimeric antibody (antibody, V domains shown)
VH: B6 VH
VL: DIVLTQSPAIMSASPGEKVTMTCSASSSVSYMYWYQQKPGSSPRLLIYDTSNLASGVPVRFSGSGSGTSYSLTISRMEAEDAATYYCQQWSSYPRTFGGGTKLEIK
EC50 [4]: 1.45 nM | Top MFI [4]: 178 MFI

B8: 39E2D11-2 mouse hybridoma-derived anti-DLL3 chimeric antibody (antibody, V domains shown)
VH: QVQLKQSGPGLVQPSQSLSITCTVSGFSLTSYGVHWVRQSPGKGLEWLGVIWSGGSTDYNAAFISRLSISKDNPKSQVFFKMNSLQADDTAIYYCARENYYGNSLWFFDVWGTGTTVTVSS
VL: DIVLTQSPATLSVTPGDSVSLSCRASQSINNNLHWYQQKSHESPRLLIKYVSQSISGIPSRFSGSGSGTDFTLTINSVETEDFGMYFCQQTNSWPLTFGAGTKLELK
EC50 [4]: 8.63 nM | Top MFI [4]: 193 MFI

B9: 40G3D1 mouse hybridoma-derived anti-DLL3 chimeric antibody (antibody, V domains shown)
VH: QVQLQQSGAELVKPGASVKISCKASGYAFSSQWMNWVKQRPGKGLEWIGQIYPGNGDTNYNGKFKGKATLTADKSSSTAYIQLSSLTSEDSAVYFCARWFAYWGQGTLVTVSA
VL: B8 VL with A9V, I29V, N30R, T74S, M85V, T91S
Top MFI [4]: 369 MFI
